Here are results for 3 molecules from patent US20060240516A1 (ECOLE NORMALE SUPERIEURE DE LYON, published 2006).

The target of test [1] is T1, LexA alone (bait control) (UniProt P0A7C2 1-202).
T1 construct: also called pLex9
T1 sequence: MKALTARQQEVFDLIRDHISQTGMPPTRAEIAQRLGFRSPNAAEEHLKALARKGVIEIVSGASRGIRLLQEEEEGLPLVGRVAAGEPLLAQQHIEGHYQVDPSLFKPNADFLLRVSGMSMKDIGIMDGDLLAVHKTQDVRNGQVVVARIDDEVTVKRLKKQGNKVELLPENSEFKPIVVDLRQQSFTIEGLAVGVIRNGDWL
In words: yeast two-hybrid, beta-galactosidase filter test; W = white after 6 h.

The target in test [2] is T1, LexA alone (bait control). In words: two-hybrid test in HeLa cells, SEAP reporter.
For a further test, the target named is T2, Rev protein of HIV-1 (HIV-1, UniProt P04618 1-116).
T2 construct: also called pSG-Rev
T2 sequence: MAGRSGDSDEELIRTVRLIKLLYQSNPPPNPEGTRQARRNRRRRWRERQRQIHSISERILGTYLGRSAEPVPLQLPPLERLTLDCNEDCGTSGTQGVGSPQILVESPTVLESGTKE
In words: gel retardation of the Rev-RRE RNA complex.

Test [3] concerns the target T3, GST-Rev fusion protein produced in bacteria (HIV-1, UniProt P04618 1-116).
T3 construct: also called GXT-Rev
T3 sequence: T2 sequence
In words: GST-Rev on glutathione-agarose column, elution with glutathione, immunoblot against FLAG.

In the case of GGGGSITRRIEMPGRDIPGVDGSILRGCWDPGRKKRRQRRRG (designed binder) [Yeast prey GAL4 activation domain-heptapeptide-Tat PTD, clone 9 (LexTat screening)], in test [1], the binding result is given as “no binding”.
With ITRRIEMPGRDIPGVDGSILRGCWDPGRKKRRQRRRG (designed binder) [Mammalian prey FLAG-NLS-Vp16 activation domain-heptapeptide-Tat PTD, pSG-FNV-P-T9], the binding result in test [2] was “no binding”.

B1: SHPT-8 produced in bacteria (N-terminal FLAG epitope), purified (designed binder)
chain: MSDQEAKPSTEDLGDKKEGEYIKLKVIGQDSSEIHFKVKMTTHLKKLKESYCQRQGVPMNSLRFLFEGQRIADNHTPKELGMEEEDVIEVYQEQTARPPNPKKEIELGGGGSFTMRGVDPGRKKRRQRRRG
notes: also called pFLAG-SUMO-1-P 8
Consider B1, for which the binding result (with Rev protein of HIV-1; in test [3]) was “no binding” each time.
